Data as given in patent US20260184777A1 (BEIJING SUNGEN BIOMEDICAL TECHNOLOGY, published 2026).
Substitutions are numbered along the chain they refer to.

B1: CM-82 (antibody, human IgG4 S228P, lambda, V domains shown)
VH: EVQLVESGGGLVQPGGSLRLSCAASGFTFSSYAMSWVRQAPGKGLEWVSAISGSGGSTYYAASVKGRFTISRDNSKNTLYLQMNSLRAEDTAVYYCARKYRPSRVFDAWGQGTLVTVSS
VL: SYELTQPPSVSVAPGQTARITCSGDALGDKYASWYQQKPGQAPVLVIYEDAKRPWGIPERFSGSNSGNTATLTISGTQAEDEADYYCQSNDADAVWVFGGGTKLTVLG
B2: CM-94 (antibody, human IgG4 S228P, lambda, V domains shown)
VH: EVQLVESGGGLVQPGGSLRLSCAASGFTFSDYAMSWVRQAPGKGLEWVSAISGSGGSTYYAASVKGRFTISRDNSKNTLYLQMNSLRAEDTAVYYCARKYRPSRVFDAWGQGTLVTVSS
VL: B1 VL with G28H, D50H, A51H, W55S
B3: CM-117 (antibody, human IgG4 S228P, lambda, V domains shown)
VH: B2 VH with A108C
VL: B1 VL with W55S, V95W
B4: CM-113 (antibody, human IgG4 S228P, lambda, V domains shown)
VH: B2 VH with D31S, T58H
VL: B1 VL with G28H, S33A, W55S
B5: CM-115 (antibody, human IgG4 S228P, lambda, V domains shown)
VH: B2 VH with F29W
VL: B1 VL with W55S, V95W
B6: CM-109 (antibody, human IgG4 S228P, lambda, V domains shown)
VH: B2 VH with T58H
VL: B1 VL with G28H, D50H, A51H, W55S
B7: CM-108 (antibody, human IgG4 S228P, lambda, V domains shown)
VH: B2 VH with T58H
VL: B1 VL with W55D, V95Y
B8: CM-111 (antibody, human IgG4 S228P, lambda, V domains shown)
VH: B2 VH with D31S, S54H
VL: B1 VL with S33A, W55S
B9: CM-88 (antibody, human IgG4 S228P, lambda, V domains shown)
VH: B2 VH
VL: B1 VL with W55S, V95R
B10: CM-100 (antibody, human IgG4 S228P, lambda, V domains shown)
VH: B2 VH with T58H
VL: B1 VL with G28H, W55S
B11: CM-101 (antibody, human IgG4 S228P, lambda, V domains shown)
VH: B2 VH with T58H
VL: B1 VL with S33A, W55S
B12: CM-97 (antibody, human IgG4 S228P, lambda, V domains shown)
VH: B2 VH
VL: B1 VL with W55Y, V95W
B13: CM-103 (antibody, human IgG4 S228P, lambda, V domains shown)
VH: B2 VH with T58H
VL: B1 VL with W55S, V95R
B14: CM-99 (antibody, human IgG4 S228P, lambda, V domains shown)
VH: B2 VH with T58H
VL: B1 VL with W55S
B15: CM-105 (antibody, human IgG4 S228P, lambda, V domains shown)
VH: B2 VH with T58H
VL: B1 VL with G28H, S33A, W55S
B16: CM-91 (antibody, human IgG4 S228P, lambda, V domains shown)
VH: B2 VH
VL: B1 VL with G28H, S33A, W55S
B17: CM-96 (antibody, human IgG4 S228P, lambda, V domains shown)
VH: B2 VH
VL: B1 VL with A32M, W55S, V95W
B18: CM-106 (antibody, human IgG4 S228P, lambda, V domains shown)
VH: B2 VH with T58H
VL: B1 VL with G28H, W55S, V95Y
B19: CM-104 (antibody, human IgG4 S228P, lambda, V domains shown)
VH: B2 VH with T58H
VL: B1 VL with W55S, V95Y
B20: CM-118 (antibody, human IgG4 S228P, lambda, V domains shown)
VH: B2 VH with A108H
VL: B1 VL with W55S, V95W
B21: CM-102 (antibody, human IgG4 S228P, lambda, V domains shown)
VH: B2 VH with T58H
VL: B1 VL with W55S, V95W
B22: CM-112 (antibody, human IgG4 S228P, lambda, V domains shown)
VH: B2 VH with D31S, T58H
VL: B1 VL with G28H, W55S
B23: CM-93 (antibody, human IgG4 S228P, lambda, V domains shown)
VH: B2 VH
VL: B1 VL with W55D, V95Y
B24: CM-110 (antibody, human IgG4 S228P, lambda, V domains shown)
VH: B2 VH with D31S, S35A
VL: B1 VL with G28H, W55S
B25: CM-84 (antibody, human IgG4 S228P, lambda, V domains shown)
VH: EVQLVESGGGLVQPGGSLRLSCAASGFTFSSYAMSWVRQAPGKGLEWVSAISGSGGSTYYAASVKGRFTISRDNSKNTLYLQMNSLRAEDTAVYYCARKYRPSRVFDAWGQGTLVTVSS
VL: B1 VL with W55D, V95Y
B26: CM-116 (antibody, human IgG4 S228P, lambda, V domains shown)
VH: B2 VH with A108F
VL: B1 VL with W55S, V95W
B27: CM-98 (antibody, human IgG4 S228P, lambda, V domains shown)
VH: B2 VH
VL: B1 VL with V95W
B28: CM-107 (antibody, human IgG4 S228P, lambda, V domains shown)
VH: B2 VH with T58H
VL: B1 VL with D50H, A51H, W55S
B29: CM-119 (antibody, human IgG4 S228P, lambda, V domains shown)
VH: B2 VH with A108Y
VL: B1 VL with W55S, V95W
B30: CM-86 (antibody, human IgG4 S228P, lambda, V domains shown)
VH: B2 VH with D31S, Y32H
VL: B1 VL with W55S
B31: CM-87 (antibody, human IgG4 S228P, lambda, V domains shown)
VH: B2 VH
VL: B1 VL with W55S, V95W
B32: CM-95 (antibody, human IgG4 S228P, lambda, V domains shown)
VH: B2 VH
VL: B1 VL with D50H, A51H, W55S
B33: CM-90 (antibody, human IgG4 S228P, lambda, V domains shown)
VH: B2 VH
VL: B1 VL with G28H, W55S
B34: CM-85 (antibody, human IgG4 S228P, lambda, V domains shown)
VH: B2 VH with F27Y, D31S
VL: B1 VL with W55S
B35: CM-92 (antibody, human IgG4 S228P, lambda, V domains shown)
VH: B2 VH
VL: B1 VL with G28H, W55S, V95Y
B36: CM-89 (antibody, human IgG4 S228P, lambda, V domains shown)
VH: B2 VH
VL: B1 VL with W55S, V95Y
B37: CM-83 (antibody, human IgG4 S228P, lambda, V domains shown)
VH: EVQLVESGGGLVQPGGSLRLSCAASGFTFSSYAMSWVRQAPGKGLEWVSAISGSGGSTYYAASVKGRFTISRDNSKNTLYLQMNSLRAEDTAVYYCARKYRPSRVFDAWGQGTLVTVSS
VL: B1 VL with W55D
B38: CM-114 (antibody, human IgG4 S228P, lambda, V domains shown)
VH: B2 VH with D31S, T58H
VL: B1 VL with D50H, A51H, W55S

The binders below were run against T1, human S100A8/A9 heterodimeric antigen, His-tagged (hS100A8/A9-His) (human, UniProt P05109 1-93; P06702 1-114) (assay: cell-based or functional assay).
T1 sequence 1: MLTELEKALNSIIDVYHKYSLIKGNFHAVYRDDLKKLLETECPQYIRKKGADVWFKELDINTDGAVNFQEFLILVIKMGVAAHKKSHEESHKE
T1 sequence 2: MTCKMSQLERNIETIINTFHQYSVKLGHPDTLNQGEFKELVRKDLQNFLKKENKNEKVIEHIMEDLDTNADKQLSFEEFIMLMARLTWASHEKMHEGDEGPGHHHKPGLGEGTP

Compared with B1, B2 is higher in “Relative IC50 (IC50 relative to CM-1), IL-6 release from hS100A8/A9-activated human PBMCs” value (“Relative IC50” below): 0.156 relative to CM-1 for the first, 2.81 relative to CM-1 for the second.

First: B3
Second: B4
The “Relative IC50” value of the first is lower: 0.367 relative to CM-1 for the first, 0.442 relative to CM-1 for the second.

First: B5
Second: B6
The “Relative IC50” value of the first is higher: 1.34 relative to CM-1 for the first, 0.475 relative to CM-1 for the second.

First: B7
Second: B8
The “Relative IC50” value of the first is higher: 1.5 relative to CM-1 for the first, 1.08 relative to CM-1 for the second.

First: B9
Second: B10
The “Relative IC50” value of the first is lower: 1.01 relative to CM-1 for the first, 1.12 relative to CM-1 for the second.

First: B11
Second: B12
The “Relative IC50” value of the first is higher: 0.683 relative to CM-1 for the first, 0.599 relative to CM-1 for the second.

Compared with B13, B14 is higher in “Relative IC50” value: 0.687 relative to CM-1 for the first, 1.3 relative to CM-1 for the second.

Compared with B15, B16 is lower in “Relative IC50” value: 1.5 relative to CM-1 for the first, 1.1 relative to CM-1 for the second.

First: B17
Second: B18
The “Relative IC50” value of the first is higher: 1.47 relative to CM-1 for the first, 0.352 relative to CM-1 for the second.

Compared with B19, B20 is lower in “Relative IC50” value: 1.76 relative to CM-1 for the first, 1.63 relative to CM-1 for the second.

First: B21
Second: B22
The “Relative IC50” value of the first is lower: 0.464 relative to CM-1 for the first, 0.738 relative to CM-1 for the second.

First: B23
Second: B24
The “Relative IC50” value of the first is higher: 0.953 relative to CM-1 for the first, 0.878 relative to CM-1 for the second.

First: B25
Second: B26
The “Relative IC50” value of the first is lower: 0.393 relative to CM-1 for the first, 0.986 relative to CM-1 for the second.

First: B27
Second: B28
The “Relative IC50” value of the first is higher: 0.703 relative to CM-1 for the first, 0.386 relative to CM-1 for the second.

First: B29
Second: B30
The “Relative IC50” value of the first is higher: 1.37 relative to CM-1 for the first, 1.27 relative to CM-1 for the second.

First: B31
Second: B32
The “Relative IC50” value of the first is lower: 0.749 relative to CM-1 for the first, 1.11 relative to CM-1 for the second.

Compared with B33, B34 is higher in “Relative IC50” value: 1.54 relative to CM-1 for the first, 1.86 relative to CM-1 for the second.

Compared with B35, B36 is lower in “Relative IC50” value: 0.697 relative to CM-1 for the first, 0.572 relative to CM-1 for the second.

First: B37
Second: B38
The “Relative IC50” value of the first is higher: 2.48 relative to CM-1 for the first, 0.899 relative to CM-1 for the second.
